“And” between values parts separate entries of the source, which are not always exact repeats. Equal entries are not always repeated.
Key:
[1] = target: p15 protein of African swine fever virus (African swine fever virus) (UniProt Q65179); assay: cryo-EM structure
[2] = target: p15 protein of African swine fever virus (African swine fever virus, UniProt Q65179); assay: SPR; conditions: both partners purified
[3] = target: T1, p15 protein of African swine fever virus (African swine fever virus, UniProt Q65179 1-158); assay: SPR
T1 chain: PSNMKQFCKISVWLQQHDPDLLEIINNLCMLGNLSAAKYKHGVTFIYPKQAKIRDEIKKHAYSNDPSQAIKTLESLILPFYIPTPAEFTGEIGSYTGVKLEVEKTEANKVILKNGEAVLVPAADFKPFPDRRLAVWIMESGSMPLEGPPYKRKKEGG

Row | Molecule | stoichiometry N [1] | Kd [2] [nM] | koff [3] [s⁻¹]
1 | p15 protein of African swine fever virus (from UniProt Q65179 1-158) (natural protein) | 3 and 6 |  | 
2 | monoclonal antibody 4E2 (antibody, V domains shown) VH: QVQLHQPGSVLVRPGASVKLSCKASGYTFTSSWMHWAKQRPGQGLEWIGEIHPKSGNTNYNENFKGKATLTVDTSSSTAYVDLSSLASEDSAVYYCARSGGTYYYAMDSWGQGTSVTVSS VL: DIQMTQTTSSLSASLGDRVTISCRASQDTSNYLNWYQQKPDGTVKLLIYYTSRLHSGVPSRFSGSGSGTDFSLTINTLEQEDFATYFCQQGNTSPYTFGGGTKLEIK |  | 6.39 | 0.000503
